Assay results from US20210214440A1 (Janssen / Centocor, published 2021).

biological target: T1, human CD8 on human pan T cells (human, UniProt P01732 22-235; P10966 22-210); test: flow cytometry, 20 nM mAb on human pan T cells
T1 construct: Native CD8 on the CD4-negative population of human pan T cells
Description: Secondary antibodies were A647-conjugated goat anti human IgG Fc antibody at 2 μg/mL, and A488-conjugated mouse anti-human CD4 at 1 μg/mL in staining buffer. Live cells were also gated based on OKT8 control mAb binding. Percent CD8 positive population was calculated by percentage of CD8-positive cell count/live cell count.

T1 sequence (P01732 22-235, chain 1 of 2): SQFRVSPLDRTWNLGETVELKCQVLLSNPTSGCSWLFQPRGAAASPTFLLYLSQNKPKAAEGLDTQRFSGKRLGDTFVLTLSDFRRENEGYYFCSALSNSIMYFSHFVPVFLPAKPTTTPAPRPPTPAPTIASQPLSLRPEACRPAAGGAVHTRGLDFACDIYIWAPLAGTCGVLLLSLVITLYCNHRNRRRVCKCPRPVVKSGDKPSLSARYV
T1 sequence (P10966 22-210, chain 2 of 2): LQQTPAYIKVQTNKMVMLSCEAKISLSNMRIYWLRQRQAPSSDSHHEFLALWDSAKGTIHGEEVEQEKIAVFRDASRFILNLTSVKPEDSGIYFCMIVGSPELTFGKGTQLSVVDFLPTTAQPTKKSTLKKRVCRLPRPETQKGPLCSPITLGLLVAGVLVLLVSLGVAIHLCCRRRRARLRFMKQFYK

Cell Binding to Human PanT Signal/Background (of CD4 negative population)	Binder
318	CD8B366 (antibody, human IgG1, kappa, V domains shown, full-length human IgG1, kappa) VH: EVQLQQSGPELVRPGASVKLSCTASGFNIKDDYIHWVKQRPEQGLEWIGRIDPANGNPRYAPKFQDKATLTADTSSNTAYLQLSSLTSEDTAVYYCARDDEGYYYFDVWGAGTSVTVSS VL: DIKMTQSPSYLAASPGETITINCRASKSISKYLAWYQEKPGKTNKVLIYSGSTLQSGIPSRFSGSGSGTDFTLTISSLEPEDFAIYYCQQHNEYPLTFGDGTRLEIKR
8	CD8B340 (antibody, human IgG1, kappa, V domains shown, full-length human IgG1, kappa) VH: QVQLQQPGAELVKPGASVRLSCKASGYTFTNYWMQWVQQRPGQGLEWIGEIDPSDTFTNYNQNFKDKATLTVDTSSSTAYLQLSSLTSEDSAVYYCARGDWDRDWYFDVWGTGTLVTVSA VL: not shown
1980	CD8B337 (antibody, human IgG1, kappa, V domains shown, full-length human IgG1, kappa) VH: QVTLKESGPGKVQPSQTLSLTCSFSGFSLSTSGMGVSWIRKPSGKGLEWLAHIFWDDDRRYKSSLKSRLTISKDTSSNQVFLMITSVDTADSATYYCARRVGYGDYAYFDVWGAGTTVTVSS VL: DIQMTQYPASLSVSVGETVTITCRASENIYSDLAWYQQKQGKSPQLLVYAATNLADGVPSRFSGSGSGTQYSLKINSLQSEDFGNYYCQHFWGTPWTFGGGTKLEIKR
4	CD8B362 (antibody, human IgG1, kappa, V domains shown, full-length human IgG1, kappa) VH: EVKLVESGAELVKPGASVKLSCTASGFNIKDTYMHWVKQRPEQGLEWIGRIDPANGHTKFDPKFQGKATITADTSSNTAYLQLSSLTSEDTAVYYCAIRFAYWGQGTLVTVSA VL: DIQMTQSPSSLSASLGDRVSLTCRASHEISGYLSWLQQKPDGTFKRLIYAASTLDSGVPKRFSGSRSGSDYSLSISSLESEDFADYYCLQYSSYPYTFGSGTKLEMKR
1	CD8B311 (antibody, human IgG1, kappa, V domains shown, full-length human IgG1, kappa) VH: QVQLKESGPELVKPGASVKLSCKASGYTFTSYWMHWVKQRPGQGLEWIGMIHPNSGSTNYNEKFKSKATLTVDKSSSTAYMQLSSLTSEDSAVYYCARCGYDGAWFAYWGQGTSVTVSS VL: DIQMTQTTSSLSASLGDRVTISCSASQGISNCLNWYQQKPDGTVKLLIHYTSSLHSGVPSRFSGGGSGTHYSLTISNLEPEDIATYYCQQYSKVPYTFGSGTKLEIKR
44	CD8B245 (antibody, human IgG1, kappa, V domains shown, full-length human IgG1, kappa) VH: EFQLQQSGGGLVQPGGSLSLSCAAPGFTFTDYYMSWVRQSPGKALEWLALSRNKGNGYTTEYSASVKGRFTISRDNSQSILYLQMNVLRAEDSATYYCARTVTGTLFYYALDYWGQGTTVTVSS VL: DIQMTQSPASLSASVGETVTITCRASENIYSYLAWYQQKQGKSPQFLVYNAKTLAAGVPSRFSGSGSGTQFSLKINRLQPEDFGTYYCQHHYGTPLTFGDGTRLEIKR
36	CD8B186 (antibody, human IgG1, kappa, V domains shown, full-length human IgG1, kappa) VH: QVQLQQSGAELAKPGASVKMSCKASGYIFTSYWMHWVKQRPGQGLEWIGNINPSSGYAVYNQKFKDKATLTADQSSSTAYIQLNSLTSEDSAVYYCARRVFYGDSWFAYWGQGTSVTVSS VL: DVQMIQSPASLSASVGETVTITCRASGNIHNYLAWYQQKQGKSPQLLVYNAKTLADGVPSRFSGSGSGTQYSLKINSLQPEDFGSYYCQHFWSTTWTFGGGTKLEIKR
22	CD8B192 (antibody, human IgG1, kappa, V domains shown, full-length human IgG1, kappa) VH: QVQLQQSGPVLVKPGASVKMSCKASGYTFTDYYMNWVMQSHGKSLEWIGVINPYNGGTTYNQRFTGKATLTVDKSSSTAYMELNSLTSEDSAVYYCARNYGAMDSWGQGTSVTVSS VL: DIQMTQSPASLSASVGETVTITCRASGNIHNYLAWYQQKQGKSPQLLVSNAKTLADGVPSRFGGSGSGTQYSLKINSLQPEDFGSYYCQHFWITPPTFGAGTRLEIKR
1610	CD8B324 (antibody, human IgG1, kappa, V domains shown, full-length human IgG1, kappa) VH: QVQLQQPGADLVKPGASVKLSCKASGYTSTSHWIHWVKQRPGQGLEWIGNIYPGSSSTNYNEKFKRMATLTVDTSSSTVYMVLSSLTSDDSAVYYCARHSPGHRDYAMDYWGLGTSVTVSS VL: DIVMTQSQKFMPTTVGDRVSITCKASQNVGTAVAWYQQKPGQSPKLLIASASNRYTGVPDRFTGSGSGTDFTLTISTMQSEDLADYFCQQYSTYPLTFGAGTKLEMKR
20	CD8B248 (antibody, human IgG1, kappa, V domains shown, full-length human IgG1, kappa) VH: EVQLQQSGAELARPGASVKMSCKASGYTFTTYTMHWVKQRPGQGLEWIGYINPSSGYTKYNQKFTDKATLTADKSSSTAYMQLSSLTSEDSAVYYCARLWAYWGQGTLVTVSA VL: DVVMTQTPLSLPVSLGDQASISCRSSQSLVHSSGNTYLHWYLQKPGQSPKLLIYKGSNRFSGVSDRFSGSGSGTDFTLKISRVEAEDLGVYFCSQSTHVPFTFGSGTKLEMKR
23	CD8B254 (antibody, human IgG1, kappa, V domains shown, full-length human IgG1, kappa) VH: EVQLQQSGAELVKPGASVKMSCKTSGYTFSSYWITWVKQRPGQGLEWVGDIYPGSGSTNYNEKFKSKAALTVDTSSSTAFMQLNSLTSEDSAVYYCARESITTRITPFDHWGQGTTLTVSS VL: DVVMTQTPLSLPVSLGDQASISCRSSQSLVHSSGNTYLHWYLQKPGQSPKLLIYKGSNRFSGVSDRFSGSGSGTDFTLKISRVEAEDLGVYFCSQSTHVPFTFGSGTKLEIKR
16	CD8B319 (antibody, human IgG1, kappa, V domains shown, full-length human IgG1, kappa) VH: QVQLKESGPELKKPGETVKISCKASGYSFTAYYMHWVKQSPEKSLEWIGEINPSAGGTTYNQKFKAKATLTVDKSSSTAFIQLKSLTSEDSAVYYCARWTNPFDYWGQGTTLTVSS VL: DIVMTQSQKFMSTTVGDRVSITCKASQNVGTAVAWYQQKPGQSPKLLIYSASYRYTGVPDRFTGSGSGTHFTLTISNIQSEDLADYFCQQYNNYLTFGSGTKLEIKR
29	CD8B310 (antibody, human IgG1, kappa, V domains shown, full-length human IgG1, kappa) VH: QVQLKESGPGLVAPSQSLSITCTVSGFSLTNYAVHWVRQSPGKGLEWLGVIWTDGSTDYNAGFISRLSISKDNSKSQVFFKMNSLQADDTAIYYCARNNGYFPAFFAYWGQGTTVTVSS VL: DVLMTQTPLSLPVSLGDQASISCRSSQTIVHSNGNTYLEWYLQKPGQSPKLLMYKVSNRFSGVPDRFGGSGSGTDFTLKISRVEAEDLGVYYCFQGSHAPFTFGSGTKLEIKR
61	CD8B250 (antibody, human IgG1, kappa, V domains shown, full-length human IgG1, kappa) VH: QVQLKESGPGLVAPSQSLSITCTVSGFSLSNYVVHWVRQSPGKGLEWLGVIWTDGSTDYNAAFISRLSISKDNSKSQVFFKMNSLQADDTAIYYCARNNGYFPAFFAYWGQGTLVTVSA VL: DIVMTQSQKFMSTSVGDRVSVTCKASQNVDTDITWYQQKPGQSPKALIYSASYRYSGVPDRFTGSGSGTDFTLTITNVQSEDLAEYFCQQYNSYPLTFGSGTKLEMKR
